Test: soluble on expression in E. coli; label from the status in PepcDB or PDB records

Sequence	soluble on expression in E. coli
MKVVAFNGSPRRDGNTSILIDKVLNELKKEGITTEHIHIAGGKLRGCTACYKCFETLNNKCIIECDIINNCIEKMIEADGIILGSPTYFTDVTAEMKALIDRAGFVAKANDDILKRKVGAAVVSVRRAGGVHVFDTLNHFFSINQMISVGSDYWNLGMGLDIGDVQKDAEGLHTMELLGQNMAWILKKINELEHHHHHH	not soluble
MLGDVERFFSKKALEMRASEVRELLKLVETSDIISLAGGLPNPKTFPKEIIRDILVEIMEKYADKALQYGTTKGFTPLRETLMKWLGKRYGISQDNDIMITSGSQQALDLIGRVFLNPGDIVVVEAPTYLAALQAFNFYEPQYIQIPLDDEGMKVEILEEKLKELKSQGKKVKVVYTVPTFQNPAGVTMNEDRRKYLLELASEYDFIVVEDDPYGELRYSGNPEKKIKALDNEGRVIYLGTFSKILAPGFRIGWMVGDPGIIRKMEIAKQSTDLCTNVFGQVVAWRYVDGGYLEKHIPEIRKFYKPRRDAMLEALEEFMPEGVKWTKPEGGMFIWVTLPDGIDSKKMLERAIKKGVAYVPGEAFYAHRDVKNTMRLNFTYVDEDKIMEGIKRLAETIKEELKA	soluble
SADISLDELIRKRGAAAKGRLNARPGVGGVRSRVGIQQGLLSQSTRTATFQQRFDARQKIGLSDARLKLGVKDAREKLLQKDARFRIKGKVQDAREMLNSRKQQTTVPQKPRQVADAREKISLKRSSPAAFINPPIGTVTPALKLTKTIQNLYDLDEDDDGIASVPTKQMKFAASGGFLHHMAGLSSSKLSMSKALPLTKVVQNDAYTAPALPSSIRTKALPVLTSPGT	soluble
MNDDKDVVIDQIYYISTDPSATTYPTTFSVSLVDNSVAGRPFFYVVGKSTMRVDRNTTLRVEEDSKLVEKYNETYGKKYLPFPEGTYSFSTNEVTINQGDNFSSDTIFISFSNWDKLSKIDKYLLPVSLKAVDDKGAVSMDRNLIYFIADFSTTNTGYNKPAAWKPLDRTDWDVSFSYAYGYDEAQFGGRLAVDGDVSTTWFTWGVVSAGECWWATTLPAPTHLTGFSLTRQTTFGSSYNVREAKVKVKKEGDTEWTEAGLFRFGSFKGNDPQYAVFIPAVENVKEFRIDIVSPADFTGFAELDLYQLEHHHHHH	not soluble
GIDPFTMLSSGDLTSASWELVVRVDHANGEQQTEITLRVSGDLHIGGVMLKLVEQMNIAQDWSDYALWWEQKRCWLLKTHWTLDKCGVQADANLLFTPQHKM	soluble
MSLSYSNILVAVAVTPESQQLLAKAVSIARPVKGHISLITLASDPEMYNQLAAPMLEDLRNVMQEETQSFLDKLIQDAGYPVDKTFIAYGELSEHILEVCRKHHFDLVICGNHNHSFFSRASCSAKRVITSSEVDVLLVPLTGDEGHHHHHH	soluble
MGSDKIHHHHHHMPTKRGQIRHDPSSKKATTMDLNRRPVASLWIGESLQYLNQLCLKSHLRHGHPVTLYCTDKVTNAPEGVVVKPATDIMDIPMNIVEQTSASFLSNVFRYKMIQQTGAIWIDCDAFCHAPFPDEWEHIYAGHGMRGALNCGVVGIPQQGELMDQLLDYYDNLPDYPPWWNPRQRKRMDRQDSNLPLAVRIYKTERTAFGPQAFTHFARETGDIDRAMTSDVLYPVPFQLNDIFYDPHGRVEGWFSENTRSVHLYTNGTKPWWRKNPPLENSYAWRMCQEVGITPEDALE	not soluble
MDYTIENNMIKVVISDHGAEIQSVKSAHTDEEFMWQANPEIWGRHAPVLFPIVGRLKNDEYTYKGKTYHLGQHGFARNADFEVENHTKESITFLLKDNEETRKVYPFKFEFRVNYNLMNNLLEENFSVVNKSDETMIFGVGGHPGFNLPTDHGENKEDFYFDMHPSVTRVRIPLKDASLDWNNRSLAPTDSLIALSDDLFKDDALIYELRGNDNKVSLRTDKNKFHVNVWTRDAPFVGIWSQYPKTDNYVCIEPWWGIADRDDADGDLEHKYGMNHLKPGKEFQAGFSMTYHSTTDEVKLEHHHHHH	soluble
MNNWKLILPLMMSGSLIACTSTQTTTEPVEPETPKVEQPVTVEPEVKPEVEPKPEVKPKPETKPEKKPEPKPEKPVKVQKTPDGMLILGSEEWVYVPAIDQTFKARVDTGATTSSISATEIVPFERDGKDWVQFKIDINGKTSKEFKVPVERWAKVKQSSSDEVDKRAVVVAYIQVGDYKEKTEFTLADRDHMKFPILLGRSFFRDIAVVDVSKKYIQDKPTKSTKK	not soluble
MELTTKLVGTCSALDRLYQSGSAKCLFPRNSRAGLEAVLLNTAGGVTGGDRLSFSAQVRAGTRLSVTTQACERAYRAQPGETGQVRNHLSVATGARMNWLPQETILYDGSSLDRRLSVEIEPGASLLMVEPLVFGRIEMGESLNDARFCDRIEITRRGRPIFLDATRLQGGIAAHLAKPFIANGAGAMALLVYLAENAEAVLPRLRQMLPECAGASLIGEDLLVMRVLAADSFLLRQSLLPALRLLNNNEIPRCWTILEHHHHHH	not soluble
TSLKQNQLNLSTLLVNPEGPTLTQLNSVQSSERPLFLVHPIEGSTTVFHSLAAKLSVPTYGLQCTQAAPLDSIPNLAAYYIDCIKQVQPEGPYRIAGYSFGACVAFEMCSQLQAQQGPAPTHNNLFLFDGSHTYVLAYTQSYRAKMTPGCEAEAEAEALCFFIKQFLDVEHSKVLEALLPLKSLEDRVAASVDLITKSHHSLDRRELSFAAVSFYHKLRAADQYKPKAKYHGNVTLLRAKTGGTYGEDLGADYNLSQVCDGKVSVHIIEGDHRTLLEGSGLESIINIIHSS	soluble
MSASLAILTIGVVPMSEVLPLLTEYIDEQHITHHSLLGKMSREDVMADYAVEPGDDPLLTLLNDNQIAHVSRQKVERDLQSVVEVLDNQGYDVIILMSTAAIKSMAARNSILLEPLRIIPPLVASIVDGHQVGVIVPVAELLAAQEKKWQVLQMPPVYSLANPVHGSEQQLIDAGQALLDQGADVIMLDCLGFHQRHRDILQQALDVPVLLSNVLIARLASELLV	not soluble
MSKSSYYAPHGGHPAQTELLTDRAMFTEAYAVIPKGVMRDIVTSHLPFWDNMRMWVIARPLSGFAETFSQYIVELAPNGGSDKPEQDPNAEAVLFVVEGELSLTLQGQVHAMQPGGYAFIPPGADYKVRNTTGQHTRFHWIRKHYQKVDGVPLPEAFVTNEQDIQPLVMPDTEGRWSTTRFVDMSDMRHDMHVNIVNFEPGGVIPFAETHVMEHGLYVLEGKAVYRLNQDWVEVEAGDFMWLRAFCPQACYSGGPGRFRYLLYKDVNRHMRLTLNAPHLEHHHHHH	soluble
MAHHHHHHMPELSYMFSSVSEPRALGAADDGQVITSHSNSSNNNHNNFYPLYSASGSTKVSNYGGHFENNGNNIISMNNKSDVNANTCGDSGEKGNEGEKWIWVLDPLTRKLRVPLSQLVHTQATATTGTVPSLCISFLEGRCRHQWCRQAHVLPSAIPQLRHEALHAPTCCRLHDDPHDTSVLTSRFKYIRVV	not soluble
MAHHHHHHMQAQMMLGQALEHYAMMDFANLVLEQCWDICYDSQLTRPELAGGALPDVKAQKMDACARKCVARHFEVLTLLSATRELREKERMQGLPPGTLTSM	not soluble
MAHHHHHHLPALKLALEYIVPCMNKHGICVVDDFLGKETGQQIGDEVRALHDTGKFTDGQLVSQKSDSSKDIRGDKITWIEGKEPGCETIGLLMSSMDDLIRHCNGKLGSYKINGRTKAMVACYPGNGTGYVRHVDNPNGDGRCVTCIYYLNKDWDAKVSGGILRIFPEGKAQFADIEPKFDRLLFFWSDRRNPHEVQPAYATRYAITVWYFDADERARAKVKYLTGEKGVRVELNKPSDSVGKDVF	soluble
MHSENQSKGVHYAKSQRLLEINHAHLQLMESLLDEGKKYNIFKPGIDPLQVNINIAALGGYYLINQHTLGLVYHISMVSPQALEARRKVIKETILSWLLVDPSSTAHE	not soluble
MGSDKIHHHHHHSDEKYPMPTSIDQNSLSAEAKAGAIKLKWTVPADSNYYYVKVTYTLPEDGKKCMRLASVNSDTMLVDNLLHRYGDINFTLQPCNRAGEASQSCSIMAQALPALKQIKTDRNPITLSAKQLYTDDQESSEGPIANLVDGRNDTYFHMSWSSPTPFPHYIVVDLGEENALSTFLFSYVCRDNNNKDNPKEMDILGSNTFDGKNYDESQTTLLASLSNLPNTKAASYESDIIKAGASYRYLWFKVKSSTSGSNWIALAELGLSKVIVKTYDPETGETTIE	not soluble
KNCCVYDMATNTLVDAAPYGERSSDYQLATLFHNPGNNNEYLLSQVIEVLDDICQSKEIASETKTKAHWLLSYEPRLPDGDKVKRLLSILEQTLEAFSK	not soluble
MPQYKLTYFDLRGWAEPARQLFHLSHTPYDDIRIPMADTEGKWEKMRDKTPFGQLPVLNVDGFDIPQSAAICRYLAKKFGYAGKTPEEEAWADAVVDQFKDFSVAFKTLLFATRAGKPEEEILKIRYEIFNPARDVYFILLNRILKKSKSGYLVGDGLTWADLVIADNLHSLEKLRAIDDDDEGHQNLKKYKEKIYGTPDLEDHIATRMDTEV	not soluble
MSLIRVAIADDHQTLIDGISLRFDGNESIDLVFSANDGKDFLKQLKITPVDLVITDLKMPKMDGVTLAREIKRDFKNVKVIVLSMFDQPDVINKMVDVDVDGYILKTSSLDELVTAIGEVNKGKKYFDKHLHGITSLFDVNSTSSKTSLSNAEKDILNLIAEGKTSQEIANERACAVSTIHTHRRNMAHKLELYGKGELLRYAMDKKYNFEEGHHHHHH	soluble
EPEGKPRAWVLDFKGSMDAHEVNSLREEITAVLAAAKARDQVVIRLESPGGVVHGYGLAASQLQRLRDKQIPLTVSVDKVAASGGYMMACVANKIVSAPFAILGSIGVVAQIPNLHRFLKNKDIDIELHTAGQYKRTLTMLGENTEEGRRKFREDLNETHHLFKDFVHRMRPGLDIEQVATGEHWYGVQALEKGLVD	not soluble
MVWSAFLHFYQIGNSGSNAYYTAAAKSMAASWKAFFFAALDPAGFITVDKPPVALWLQALSVKVFGVSDFSVLLPEALAADCIRGRAVWFACAAGVLVVDARVGRDKQHDSVCRTGFASGRSGHAGCWDAGGARWALAGRAKHRAAEDGNRLRDNSSLAALVVYLEQHAGKAKYLAATIRATEAAEMMLHTDRAVMAMGGFGGTDPVLTPEKLEQMAQNGEVKYFLLSGEDRGNNELVQWIQTHCKEVPSSQWGGGQSAAIGGMGRGGMTLYVYNG	not soluble
MSLQPPFSILFVDDDEMSRNHFARAMSADYKVYVAQSADEAITVLGKHASEIAVLVTDFRMPGRDGDELLREVAHEYPQIVRILVTAYADKDMLLQTVNTGDVFRIIEKPLRTDMVREVLHLATARYTERETRQQRLLAMDETLAFLAHELNTPLATISLFARSVENDVAEQYDPERQREIGLAAKSMLNNAQYCLTLISSFWATVHKSGGQKSASGGGTRAVRATRLIATLLDTYPFVASQRDWVKVDVEGDFVVHAMPNCVALVLSSLLSNALRALDGGSAPVLRLEVVAFPEPEIRIRDNGPGIAPEVKARLLQDPVTTYAGAGGHGMGMIFCNRIMQSFGGCLRIESTVGAGTTVTMGFPGFNSRMHSADEGHHHHHH	soluble
MAHHHHHHMMRERAAALDDLNALLTVNKDHPQGLALRMSLNTQLGNLVDAHRDGKHLVRVYKALNKPDKSQQTSEKVHRLERYTVRWTALSDLWSQPVGAYTAATNDAVLMRKYRECVDLLARIIHEFSMESVELRLRRAACALAADDNIAATQELKYVTQRSPQNLDAIALNAQALRRLGALDQSMSELRRCLNLDPEYAPCANLHKLIRQQQRMTKNIEKRLQEKKFEAVVQLIAETRAAEPHAPYEEQLAAWHCEALVSLRSTDEGIRVCQALVDRYDGANNPTVFDAHIRLAELHLLDDNIAAAEAALQKAREIRQHDGKVEEMRLKIEKLKRTGPRKDYYKILGLKKTASAQEIRRAYRKLAKSSHPDQLRSKDMTDREREKQEKMFRDVNEAKEVLLDEEKRARYDSGEDVNQPAGQRGEPFFGSHFAGGFPGGFPGGFPGGFPGGFPGGFHQQRDGGVHQQFFFFNREN	not soluble

— the DeepSol protein solubility set
